# B1: Kif15-M-His (amino acids 1-714, motor domain and part of the stalk) (domain or fragment, human, UniProt Q9NS87 1-714, looked up)
# chain: MAPGCKTELRSVTNGQSNQPSNEGDAIKVFVRIRPPAERSGSADGEQNLCLSVLSSTSLRLHSNPEPKTFTFDHVADVDTTQESVFATVAKSIVESCMSGYNGTIFAYGQTGSGKTFTMMGPSESDNFSHNLRGVIPRSFEYLFSLIDREKEKAGAGKSFLCKCSFIEIYNEQIYDLLDSASAGLYLREHIKKGVFVVGAVEQVVTSAAEAYQVLSGGWRNRRVASTSMNRESSRSHAVFTITIESMEKSNEIVNIRTSLLNLVDLAGSERQKDTHAEGMRLKEAGNINRSLSCLGQVITALVDVGNGKQRHVCYRDSKLTFLLRDSLGGNAKTAIIANVHPGSRCFGETLSTLNFAQRAKLIKNKAVVNEDTQGNVSQLQAEVKRLKEQLAELASGQTPPESFLTRDKKKTNYMEYFQEAMLFFKKSEQEKKSLIEKVTQLEDLTLKKEKFIQSNKMIVKFREDQIIRLEKLHKESRGGFLPEEQDRLLSELRNEIQTLREQIEHHPRVAKYAMENHSLREENRRLRLLEPVKRAQEMDAQTIAKLEKAFSEISGMEKSDKNQQGFSPKAQKEPCLFANTEKLKAQLLQIQTELNNSKQEYEEFKELTRKRQLELESELQSLQKANLNLENLLEATKACKRQEVSQLNKIHAETLKIITTPTKAYQLHSRPVPKLSPEMGSFGSLYTQNSSILDNDILNEPVPPEMNEQAFEA
# notes: Kif15, human, first 714 amino acids (motor domain and part of the stalk sufficient for dimerization), cloned into pET-21b; also called recombinant Kif15 motor domain; source: E. coli BL21 (DE3), purified (Ni-NTA)
# B2: KBP-His (full-length His-tagged KBP) (natural protein, human, UniProt Q96EK5 1-621, looked up)
# chain: MANVPWAEVCEKFQAALALSRVELHKNPEKEPYKSKYSARALLEEVKALLGPAPEDEDERPEAEDGPGAGDHALGLPAEVVEPEGPVAQRAVRLAVIEFHLGVNHIDTEELSAGEEHLVKCLRLLRRYRLSHDCISLCIQAQNNLGILWSEREEIETAQAYLESSEALYNQYMKEVGSPPLDPTERFLPEEEKLTEQERSKRFEKVYTHNLYYLAQVYQHLEMFEKAAHYCHSTLKRQLEHNAYHPIEWAINAATLSQFYINKLCFMEARHCLSAANVIFGQTGKISATEDTPEAEGEVPELYHQRKGEIARCWIKYCLTLMQNAQLSMQDNIGELDLDKQSELRALRKKELDEEESIRKKAVQFGTGELCDAISAVEEKVSYLRPLDFEEARELFLLGQHYVFEAKEFFQIDGYVTDHIEVVQDHSALFKVLAFFETDMERRCKMHKRRIAMLEPLTVDLNPQYYLLVNRQIQFEIAHAYYDMMDLKVAIADRLRDPDSHIVKKINNLNKSALKYYQLFLDSLRDPNKVFPEHIGEDVLRPAMLAKFRVARLYGKIITADPKKELENLATSLEHYKFIVDYCEKHPEAAQEIEVELELSKEMVSLLPTKMERFRTKMALT
# notes: also called recombinant His-tagged KBP; source: E. coli BL21 (DE3), purified (Ni-NTA)
# What was measured:
# [1] = target: the molecule itself; test: SEC + other: sucrose gradient centrifugation; 80 μg of each protein alone or both in motor buffer (100mM PIPES, 2mM MgAc2, 1mM EGTA, 1mM DTT), pre-incubated 30 min on ice; Superose 6 column; 6-28% sucrose gradients, 16 h at 4°C; with or without ATP; native molecular weights calculated from Stokes radius and sedimentation coefficient
# [2] = target: B1; test: as above; settings: both partners purified
stoichiometry N [2] [KBP per Kif15-M dimer],Binder,stoichiometry N [1]
,B1,2
2,B2,
